Measured values as given in the supplement of paper PMC10724198.
± gives the standard deviation of the averaged measurements.

How the values were obtained:
Experiment in all cases: protein stability index of tFT-peptide fusion (C-terminal peptide) (PSI (0-1 scale)); higher = more stable (slower turnover)
[1] = system: Saccharomyces cerevisiae; details: temperature: 30 C
Procedure: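 MPS profiling in S. cerevisiae of the yeast C-terminome library: the last 12 aa of each annotated ORF are fused to the C-terminus of a sfGFP-mCherry timer, after a GGGS linker. Cells are FACS-sorted into 8 mCherry/sfGFP bins and deep-sequenced. PSI runs from 0 (unstable) to 1 (stable); wild type and das1Δ backgrounds, two technical replicates each.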

[2] = system: Saccharomyces cerevisiae
Procedure: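 MPS profiling in S. cerevisiae of the tFT-X12 degron library: putative degron peptides plus stable controls, 12 aa, fused to the C-terminus of a sfGFP-mCherry timer. Cells are FACS-sorted into 8 mCherry/sfGFP bins and deep-sequenced. PSI runs from 0 (unstable) to 1 (stable). Backgrounds are wild type, das1Δ and doa10Δ at 30 °C, and wild type, das1Δ, cdc34-1 and cdc53-1 at 37 °C; 2-3 technical replicates each.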

[3] = system: Saccharomyces cerevisiae; details: genetic background: wild type; temperature: 30 C
[4] = genetic background: das1 deletion
[5] = genetic background: cdc34-1, temperature: 37 C
[6] = genetic background: cdc53-1, temperature: 37 C
[7] = genetic background: das1 deletion, temperature: 30 C
[8] = genetic background: das1 deletion, temperature: 37 C
[9] = genetic background: doa10 deletion, temperature: 30 C
[10] = genetic background: wild type, temperature: 30 C
[11] = genetic background: wild type, temperature: 37 C

Sequence | protein stability index [1, 4] | protein stability index ([1]; genetic background: wild type) | protein stability index [2, 5] | protein stability index [2, 6] | protein stability index [2, 7] | protein stability index [2, 8] | protein stability index [2, 9] | protein stability index [2, 10] | protein stability index [2, 11] | protein stability index [3]
EMRKRFFEKDLL [RAP1 C-terminal 12 aa] | 0.696 ± 0.022 | 0.723 ± 0.059 |  |  |  |  |  |  |  | 
FADKIKPTKVAE [MCK1 C-terminal 12 aa] | 0.693 ± 0.015 | 0.691 ± 0.023 |  |  |  |  |  |  |  | 
AAAIAGAAALLL [DAN1 C-terminal 12 aa] | 0.712 ± 0.013 | 0.732 ± 0.035 |  |  |  |  |  |  |  | 
TEFEKIHRNTFN [REX4 C-terminal 12 aa] | 0.706 ± 0.012 | 0.723 ± 0.033 |  |  |  |  |  |  |  | 
SGSVYIGSVFLI [YGR121W-A C-terminal 12 aa] | 0.692 ± 0.029 | 0.6421 ± 0.0012 |  |  |  |  |  |  |  | 
SDAVAEANDIDD [TOM20 C-terminal 12 aa] | 0.673 ± 0.051 | 0.72 ± 0.047 |  |  |  |  |  |  |  | 
FSMLANRITIGL [YJL175W C-terminal 12 aa] | 0.657 ± 0.016 | 0.64 ± 0.014 |  |  |  |  |  |  |  | 
DSDADIEELLEE [PGA2 C-terminal 12 aa] | 0.696 ± 0.015 | 0.689 ± 0.046 |  |  |  |  |  |  |  | 
GLLRKGLVKRDI [YHR193C-A C-terminal 12 aa] | 0.6883 ± 0.0029 | 0.677 ± 0.033 |  |  |  |  |  |  |  | 
NMIIDTLGGNEK [COQ6 C-terminal 12 aa] | 0.735 ± 0.019 | 0.692 ± 0.013 |  |  |  |  |  |  |  | 
ESDHPTLADNSV [MRL1 C-terminal 12 aa] | 0.6955 ± 0.0041 | 0.6912 ± 0.00095 |  |  |  |  |  |  |  | 
TASQLLEVQSKS [YGL039W C-terminal 12 aa] | 0.68 ± 0.023 | 0.6694 ± 0.006 |  |  |  |  |  |  |  | 
EEAREEFENIAL [SMI1 C-terminal 12 aa] | 0.679 ± 0.0096 | 0.645 ± 0.017 |  |  |  |  |  |  |  | 
LKKTLNGRRKMI |  |  | 0.626 ± 0.019 | 0.73 ± 0.042 | 0.638 ± 0.048 | 0.736 ± 0.015 | 0.239 ± 0.063 | 0.282 ± 0.036 | 0.373 ± 0.02 | 0.416 ± 0.037
CWSSVGLSVCGC |  |  | 0.676 ± 0.026 | 0.7508 ± 0.0058 | 0.619 ± 0.031 | 0.7193 ± 0.0065 | 0.597 ± 0.037 | 0.599 ± 0.012 | 0.693 ± 0.024 | 0.601 ± 0.16
WRGALHPTPVAA |  |  | 0.285 ± 0.018 | 0.282 ± 0.0046 | 0.249 ± 0.035 | 0.419 ± 0.0075 | 0.198 ± 0.0084 | 0.253 ± 0.029 | 0.4 ± 0.017 | 0.339 ± 0.0086
EGVVLLVDCVAT |  |  | 0.4623 ± 0.0015 | 0.465 ± 0.02 | 0.301 ± 0.031 | 0.514 ± 0.0093 | 0.26 ± 0.0074 | 0.308 ± 0.02 | 0.492 ± 0.02 | 0.41 ± 0.025
FYPFHVFCLLIF |  |  | 0.18 ± 0.028 | 0.177 ± 0.037 | 0.254 ± 0.017 | 0.361 ± 0.012 | 0.18 ± 0.023 | 0.162 ± 0.028 | 0.228 ± 0.0053 | 0.243 ± 0.029
FVRVFLRLGVVS |  |  | 0.14 ± 0.024 | 0.17 ± 0.039 | 0.194 ± 0.035 | 0.302 ± 0.019 | 0.175 ± 0.0045 | 0.177 ± 0.022 | 0.256 ± 0.0033 | 0.299 ± 0.027
RLLRGDRMVICS |  |  | 0.5515 ± 0.0014 | 0.565 ± 0.057 | 0.395 ± 0.039 | 0.615 ± 0.0066 | 0.3601 ± 0.0008 | 0.375 ± 0.022 | 0.582 ± 0.0066 | 0.433 ± 0.017
